Assay results taken from patent US20130142788A1 (published 2013).
Numbering of substitutions follows the chain as printed.

Experiments:
[1] = molecular target: T1, recombinant mature dimeric myostatin (human and mouse (mature sequences 100% …, UniProt O08689 268-376)); assay: cell-based or functional assay
T1 sequence: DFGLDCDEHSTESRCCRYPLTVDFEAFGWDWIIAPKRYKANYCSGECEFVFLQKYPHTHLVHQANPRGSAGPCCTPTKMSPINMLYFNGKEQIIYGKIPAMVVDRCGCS

[2] = molecular target: T1, recombinant mature dimeric myostatin; assay: Kinexa solution phase affinity
Method: Kinexa (Sapidyne Instruments) solution phase affinity was used to determine the overall affinity for a range of anti-myostatin molecules. Myostatin beads were prepared either by adsorption (polymethylmethacrylate beads-PMMA) or amine coupling (NHS-activated sepharose beads). The range of anti-myostatin molecules studied necessitated the generation of beads coated with different concentrations of myostatin. For the solution phase portion of the assay, a fixed concentration of antibody was incubated with a broad range of myostatin concentrations and allowed to reach equilibrium by incubation at r.t. for at least 2 h before analysis proceeded. The myostatin beads were then used to determine the amount of free antibody present in the solution phase samples, by means of the free antibody binding to the myostatin bead matrix then detected using an appropriate secondary antibody (either anti-human or anti-mouse depending on the construct being tested) labelled with a fluorescent dye. The binding curves where fitted using the Kinexa Pro analysis software inherent to the machine. Multiple runs using varying starting concentrations of antibody were then compiled and analysed using the n-curve analysis software to give a more accurate determination of affinity.

[3] = molecular target: T2, GDF-11 (UniProt O95390 299-407); assay: ELISA, growth factors coated at 0.5 µg/ml, H8L5 titrated
T2 construct: also called Growth and Differentiation Factor-11
T2 sequence (looked up): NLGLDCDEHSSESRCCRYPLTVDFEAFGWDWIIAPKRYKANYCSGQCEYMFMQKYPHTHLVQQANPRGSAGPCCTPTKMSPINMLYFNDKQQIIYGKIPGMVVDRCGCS
Method: An ELISA was performed to determine whether H8L5 might bind any other growth factors and especially other members of the TGF family which were known to share some homology around the proposed epitope sequence. By coating an ELISA plate with the various growth factors at 0.5 μg/ml and titrating in H8L5 under standard ELISA conditions, It was concluded that the only other factor tested to which H8L5 could bind was GDF-11 wherein the concentration required to give 50% binding was 3-fold lower than myostatin (FIG. 22).

[4] = molecular target: T3, Fc R 2a His polymorphism (UniProt P12318 34-217, limits assumed); assay: ProteOn XPR36 SPR, antibody immobilised, receptor 8-2048 nM, equilibrium model
T3 construct: also called FcγRIIa His
T3 sequence (looked up): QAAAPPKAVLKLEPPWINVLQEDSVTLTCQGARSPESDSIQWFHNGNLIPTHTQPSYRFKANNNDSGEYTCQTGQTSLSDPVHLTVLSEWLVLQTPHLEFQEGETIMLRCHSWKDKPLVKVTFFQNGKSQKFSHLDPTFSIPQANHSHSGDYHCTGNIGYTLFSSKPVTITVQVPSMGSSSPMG
Method: (§1) Binding analysis to Fc R5 and C1q was carried out using the ProteOn XPR36. The test antibodies (H8L5 and Fc-disabled H8L5) were immobilised on a GLC biosensor chip by primary amine coupling. The Fc Rs were used at 2048 nM, 512 nM, 128 nM, 32 nM and 8 nM, while C1q was used at 512 nM, 128 nM, 32 nM, 8 nM and 2 nM. A buffer injection (i.e. 0 nM) was used to double reference the binding sensorgrams. Due to the nature of the interaction (i.e. fast on/fast-off) regeneration was not required and the binding sensorgrams returned to baseline by use of a 20 min dissociation time and subsequent buffer injections. The data was fitted to the Equilibrium model inherent to the PrateOn's analysis software, using a global R-max for each receptor group and for C1q binding (i.e. Fc R 2aHis and Arg polymorphisms were analysed together and Fc R3aPhe and Val polymorphisms were analysed together, while C1q was analysed separately).

[5] = molecular target: T4, Fc R 2a Arg polymorphism (UniProt P12318 34-217, limits assumed); assay: as above
T4 construct: also called FcγRIIa Arg
T4 sequence (looked up): T3 sequence (looked up) with H134R
Method: as §1

[6] = molecular target: T5, Fc R3a Phe polymorphism (UniProt P08637 17-208, limits assumed); assay: as above
T5 construct: also called FcγRIIIa Phe
T5 sequence (P08637 17-208 limits assumed): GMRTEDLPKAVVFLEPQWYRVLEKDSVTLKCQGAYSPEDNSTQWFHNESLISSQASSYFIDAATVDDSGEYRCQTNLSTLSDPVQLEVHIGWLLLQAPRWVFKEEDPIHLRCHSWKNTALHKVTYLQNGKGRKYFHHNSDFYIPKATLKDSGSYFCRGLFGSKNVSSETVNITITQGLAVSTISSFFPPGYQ
Method: as §1

[7] = molecular target: T6, Fc R3a Val polymorphism (UniProt P08637 17-208, limits assumed); assay: as above
T6 construct: also called FcγRIIIa Val
T6 sequence (P08637 17-208 F176V limits assumed): as the sequence (P08637 17-208 limits assumed) above, with F160V counted along it
Method: as §1

[8] = molecular target: T1, recombinant mature dimeric myostatin; assay: ActRIIb neutralisation ELISA: inhibition of 2 nM biotinylated myostatin binding to coated ActRIIb
Method: Recombinant soluble ActRIIb (R&D Systems 339-RBB) was coated in wells of an ELISA plate at 1 μg/ml in carbonate buffer overnight at 4° C. Plates were blocked with PBS containing 0.1% tween 20 and 0.1% BSA and washed following standard ELISA protocols. In parallel, 2 nM biotinylated myostatin (in-house reagent, described above) was pre-incubated with a dilution series of the antibodies of Tables 21 and 22 for 30 minutes at 37° C. The biotinylated myostatin:antibody reactions were then added (50 μl/well) to the ActRIIb coated plate for 1 hour at 37° C. Standard wash procedures were followed prior to addition of 50 μl per well of a 1:200 diluted streptavidin-HRP conjugate (R&D Systems. #890803) followed by a further 37° C. incubation for 1 hour. Plates were again washed and assayed at absorbance 490 nm following substrate (R&D Systems, #DY999) and acid stop solution treatment.

[9] = molecular target: T7, rhBMP6 (human, UniProt P22004); assay: ELISA: plate coated with the growth factor at 0.5 µg/ml, H8L5 titrated; read-out % Bound
T7 construct: recombinant (rh); form not further stated; member of the growth factor panel m51, named only on the sheet
T7 sequence (looked up): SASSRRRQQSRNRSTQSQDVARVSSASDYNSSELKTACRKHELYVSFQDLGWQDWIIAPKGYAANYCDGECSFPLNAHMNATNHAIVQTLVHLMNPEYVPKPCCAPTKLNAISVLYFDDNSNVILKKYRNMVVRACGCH

[10] = molecular target: T8, rhBMP9 (human, UniProt Q9UK05); assay: as above
T8 construct: recombinant (rh); form not further stated; member of the growth factor panel m51, named only on the sheet
T8 sequence (looked up): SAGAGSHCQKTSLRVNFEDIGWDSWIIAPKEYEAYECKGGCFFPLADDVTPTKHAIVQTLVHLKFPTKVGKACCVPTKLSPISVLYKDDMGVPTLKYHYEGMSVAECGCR

B1: H8L5 (antibody, IgG1)
heavy: not shown
light: DIQMTQSPSSLSASVGDRVTITCKASQDINSYLSWFQQKPGKAPKTLIYRANRLVDGVPSKFSGSGSGTDYTLTISSLQPEDFATYYCLQSDEFPLTFGQGTKLEIKRTVAAPSVFIFPPSDEQLKSGTASVVCLLNNFYPREAKVQWKVDNALQSGNSQESVTEQDSKDSTYSLSSTLTLSKADYEKHKVYACEVTHQGLSSPVTKSFNRGEC
notes: Humanised IgG1/kappa; also called 10B3H8L5; copies: 2 + 2
[1]
  IC50, myostatin responsive reporter gene neutralisation assay (A204): 5000 pM
[2]
  Kd: 50 pM
[3]
  fold lower concentration required to give 50% binding than for myostatin: 3 fold
[4]
  binding result: binds
[5]
  binding result: binds
[6]
  binding result: binds
[7]
  binding result: binds
[8]
  IC50: 101 pM
[9]
  binding result: no binding (tested: 10^-7 (axis prints no unit))
[10]
  binding result: no binding (tested: 10^-7 (axis prints no unit))
